Data from patent publication US20200199576.

Key:
[1] = target: T1, UV excision repair protein HHR23A (RAD23A), P54725
T1 chain: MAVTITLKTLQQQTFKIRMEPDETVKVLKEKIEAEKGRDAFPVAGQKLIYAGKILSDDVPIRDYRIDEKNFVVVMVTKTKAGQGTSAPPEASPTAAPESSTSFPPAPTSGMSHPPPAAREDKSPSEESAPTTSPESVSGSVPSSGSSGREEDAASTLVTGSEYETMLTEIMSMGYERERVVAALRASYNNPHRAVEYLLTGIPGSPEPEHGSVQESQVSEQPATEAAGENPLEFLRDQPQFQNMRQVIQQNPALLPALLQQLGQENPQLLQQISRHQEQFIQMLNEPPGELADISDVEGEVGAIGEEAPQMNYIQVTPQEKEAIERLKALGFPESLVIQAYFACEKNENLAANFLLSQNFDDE

[2] = target: CDK1, P06493
CDK1, P06493, sequence (P06493 whole entry, looked up): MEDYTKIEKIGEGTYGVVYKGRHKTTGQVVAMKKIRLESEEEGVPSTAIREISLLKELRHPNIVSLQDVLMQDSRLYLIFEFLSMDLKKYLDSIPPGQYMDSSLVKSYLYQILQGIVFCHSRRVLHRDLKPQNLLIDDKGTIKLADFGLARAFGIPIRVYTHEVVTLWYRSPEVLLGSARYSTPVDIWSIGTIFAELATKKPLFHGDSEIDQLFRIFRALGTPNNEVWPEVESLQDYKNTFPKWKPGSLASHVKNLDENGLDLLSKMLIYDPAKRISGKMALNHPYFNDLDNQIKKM

[3] = target: MAPK1, P28482
MAPK1, P28482, sequence (P28482 whole entry): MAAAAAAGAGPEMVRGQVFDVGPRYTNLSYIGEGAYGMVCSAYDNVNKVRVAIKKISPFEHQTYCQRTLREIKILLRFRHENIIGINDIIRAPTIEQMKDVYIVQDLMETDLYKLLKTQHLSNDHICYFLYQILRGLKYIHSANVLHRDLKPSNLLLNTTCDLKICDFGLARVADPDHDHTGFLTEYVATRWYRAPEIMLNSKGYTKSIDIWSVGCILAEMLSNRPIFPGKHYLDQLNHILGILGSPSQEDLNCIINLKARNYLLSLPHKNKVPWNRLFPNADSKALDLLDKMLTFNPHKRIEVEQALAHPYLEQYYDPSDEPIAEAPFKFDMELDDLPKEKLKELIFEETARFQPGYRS

[4] = target: wt UbcH7 (human E2)
[5] = target: T2, FAS-associated factor UbxD8, Q96CS3
T2 chain: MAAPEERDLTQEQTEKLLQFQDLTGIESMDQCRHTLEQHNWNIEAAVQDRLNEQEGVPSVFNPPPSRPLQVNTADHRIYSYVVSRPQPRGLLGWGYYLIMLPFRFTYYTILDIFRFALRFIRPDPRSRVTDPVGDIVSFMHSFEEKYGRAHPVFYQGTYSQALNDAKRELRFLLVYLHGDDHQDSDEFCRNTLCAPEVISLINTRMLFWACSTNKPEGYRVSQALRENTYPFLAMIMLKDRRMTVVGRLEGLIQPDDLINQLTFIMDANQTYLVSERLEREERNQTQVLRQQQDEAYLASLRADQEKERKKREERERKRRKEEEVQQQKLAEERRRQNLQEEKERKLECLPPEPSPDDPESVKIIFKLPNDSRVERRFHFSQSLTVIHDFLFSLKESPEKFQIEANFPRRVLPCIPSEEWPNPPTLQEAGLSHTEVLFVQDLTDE

[6] = target: T3, β-catenin, P35222
T3 chain: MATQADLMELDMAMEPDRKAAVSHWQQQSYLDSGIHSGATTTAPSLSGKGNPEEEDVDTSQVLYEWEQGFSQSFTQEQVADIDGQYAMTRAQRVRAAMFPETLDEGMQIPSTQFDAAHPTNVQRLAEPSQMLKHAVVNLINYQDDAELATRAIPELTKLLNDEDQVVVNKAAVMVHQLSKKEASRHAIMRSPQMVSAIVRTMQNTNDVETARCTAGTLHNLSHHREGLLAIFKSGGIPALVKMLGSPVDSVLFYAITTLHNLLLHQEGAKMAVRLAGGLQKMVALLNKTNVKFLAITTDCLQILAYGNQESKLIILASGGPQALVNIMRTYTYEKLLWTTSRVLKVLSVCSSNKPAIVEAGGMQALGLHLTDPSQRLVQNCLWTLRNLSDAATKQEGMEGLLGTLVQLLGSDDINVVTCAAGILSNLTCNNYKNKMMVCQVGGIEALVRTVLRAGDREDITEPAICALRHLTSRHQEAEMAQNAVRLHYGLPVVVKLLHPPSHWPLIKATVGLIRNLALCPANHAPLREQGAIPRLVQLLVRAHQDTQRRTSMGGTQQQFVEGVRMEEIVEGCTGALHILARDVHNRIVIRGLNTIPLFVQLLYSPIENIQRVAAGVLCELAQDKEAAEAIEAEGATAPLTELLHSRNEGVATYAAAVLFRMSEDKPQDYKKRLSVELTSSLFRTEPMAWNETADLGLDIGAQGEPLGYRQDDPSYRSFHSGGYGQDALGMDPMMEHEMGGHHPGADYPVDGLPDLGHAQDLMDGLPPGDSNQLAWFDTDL

[7] = target: T4, CDK4, P11802
T4 chain: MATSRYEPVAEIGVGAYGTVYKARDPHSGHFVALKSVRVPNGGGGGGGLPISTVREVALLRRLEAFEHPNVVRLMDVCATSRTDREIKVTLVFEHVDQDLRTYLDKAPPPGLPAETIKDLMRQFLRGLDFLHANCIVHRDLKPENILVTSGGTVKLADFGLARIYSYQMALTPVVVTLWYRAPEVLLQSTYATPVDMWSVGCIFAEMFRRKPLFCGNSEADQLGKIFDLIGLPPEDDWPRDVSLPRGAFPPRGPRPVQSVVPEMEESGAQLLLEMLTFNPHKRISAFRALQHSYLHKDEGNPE

[8] = target: p53, P04637
p53, P04637, sequence (P04637 whole entry, looked up): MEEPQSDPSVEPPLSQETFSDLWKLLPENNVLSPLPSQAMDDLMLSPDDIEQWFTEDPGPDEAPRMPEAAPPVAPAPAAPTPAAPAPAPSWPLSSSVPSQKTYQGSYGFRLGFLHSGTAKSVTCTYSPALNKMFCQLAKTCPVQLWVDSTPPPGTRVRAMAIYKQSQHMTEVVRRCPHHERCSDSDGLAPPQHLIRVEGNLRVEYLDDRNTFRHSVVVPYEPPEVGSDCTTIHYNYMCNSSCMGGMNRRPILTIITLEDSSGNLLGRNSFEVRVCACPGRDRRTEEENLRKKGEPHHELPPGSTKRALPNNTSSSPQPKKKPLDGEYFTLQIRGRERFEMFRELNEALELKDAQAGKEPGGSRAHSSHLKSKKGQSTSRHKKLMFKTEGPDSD

[9] = target: protein Arg methyltransferase 5 (PRMT5), O14744
protein Arg methyltransferase 5 (PRMT5), O14744, sequence (O14744 whole entry): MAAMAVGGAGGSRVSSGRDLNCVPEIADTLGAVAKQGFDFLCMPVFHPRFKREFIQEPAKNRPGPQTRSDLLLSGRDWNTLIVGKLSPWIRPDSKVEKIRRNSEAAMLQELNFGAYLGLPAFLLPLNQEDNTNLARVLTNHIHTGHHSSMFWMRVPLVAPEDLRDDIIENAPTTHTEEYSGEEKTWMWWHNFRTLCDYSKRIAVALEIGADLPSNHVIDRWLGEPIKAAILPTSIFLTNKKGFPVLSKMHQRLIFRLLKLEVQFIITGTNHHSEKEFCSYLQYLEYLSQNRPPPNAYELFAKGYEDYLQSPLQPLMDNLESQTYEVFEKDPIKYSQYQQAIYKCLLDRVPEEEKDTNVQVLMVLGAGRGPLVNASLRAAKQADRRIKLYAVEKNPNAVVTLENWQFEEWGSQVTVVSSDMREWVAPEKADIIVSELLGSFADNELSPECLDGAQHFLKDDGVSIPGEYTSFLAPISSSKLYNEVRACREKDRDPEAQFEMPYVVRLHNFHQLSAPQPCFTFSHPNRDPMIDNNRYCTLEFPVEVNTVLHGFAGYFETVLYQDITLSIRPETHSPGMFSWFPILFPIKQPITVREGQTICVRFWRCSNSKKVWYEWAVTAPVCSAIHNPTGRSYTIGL

B1: wt E6AP (full-length) (protein)
chain: MKRAAAKHLIERYYHQLTEGCGNEACTNEFCASCPTFLRMDNNAAAIKALELYKINAKLCDPHPSKKGASSAYLENSKGAPNNSCSEIKMNKKGARIDFKDVTYLTEEKVYEILELCREREDYSPLIRVIGRVFSSAEALVQSFRKVKQHTKEELKSLQAKDEDKDEDEKEKAACSAAAMEEDSEASSSRIGDSSQGDNNLQKLGPDDVSVDIDAIRRVYTRLLSNEKIETAFLNALVYLSPNVECDLTYHNVYSRDPNYLNLFIIVMENRNLHSPEYLEMALPLFCKAMSKLPLAAQGKLIRLWSKYNADQIRRMMETFQQLITYKVISNEFNSRNLVNDDDAIVAASKCLKMVYYANVVGGEVDTNHNEEDDEEPIPESSELTLQELLGEERRNKKGPRVDPLETELGVKTLDCRKPLIPFEEFINEPLNEVLEMDKDYTFFKVETENKFSFMTCPFILNAVTKNLGLYYDNRIRMYSERRITVLYSLVQGQQLNPYLRLKVRRDHIIDDALVRLEMIAMENPADLKKQLYVEFEGEQGVDEGGVSKEFFQLVVEEIFNPDIGMFTYDESTKLFWFNPSSFETEGQFTLIGIVLGLAIYNNCILDVHFPMVVYRKLMGKKGTFRDLGDSHPVLYQSLKDLLEYEGNVEDDMMITFQISQTDLFGNPMMYDLKENGDKIPITNENRKEFVNLYSDYILNKSVEKQFKAFRRGFHMVTNESPLKYLFRPEEIELLICGSRNLDFQALEETTEYDGGYTRDSVLIREFWEIVHSFTDEQKRLFLQFTTGTDRAPVGGLGKLKMIIAKNGPDTERLPTSHTCFNVLLLPEYSSKEKLKERLLKAITYAKGFGML
For B1, the “in vitro substrate ubiquitination with wt UB through Uba1-UbcH7-E6AP, Western blot” value (“in vitro substrate ubiquitination” below) [1] was “E6AP-catalyzed ubiquitination of HHR23A, a previously identified E6AP substrate, was confirmed”, the “in vitro substrate ubiquitination” value [2] was “CDK1, CDK4 and β-catenin were strongly ubiquitinated by E6AP with the formation of high molecular weight bands” and the “in vitro substrate ubiquitination” value [3] was “MAPK1, PRMTS, and UbxD8 mainly generated species with one or two conjugated UBs”. For the same protein, the “full-length E6AP auto-ubiquitination with wt UB, Western blot” value [4] was “wt E6AP can be auto-ubiquitinated by the wt Uba1-UbcH7 pair”, the “in vitro substrate ubiquitination” value [5] was “MAPK1, PRMTS, and UbxD8 mainly generated species with one or two conjugated UBs” and the “in vitro substrate ubiquitination” value [6] was “CDK1, CDK4 and β-catenin were strongly ubiquitinated by E6AP with the formation of high molecular weight bands”. The “in vitro substrate ubiquitination” value [7] was “CDK1, CDK4 and β-catenin were strongly ubiquitinated by E6AP with the formation of high molecular weight bands”, the “p53 ubiquitination in the presence of E6, Western blot” value [8] was “p53 can be efficiently ubiquitinated by wt UB through the wt Uba1-UbcH7-E6AP cascade in the presence of E6” and the “in vitro substrate ubiquitination” value [9] was “MAPK1, PRMTS, and UbxD8 mainly generated species with one or two conjugated UBs”.
